Biological target: chemokine (C-X-C) motif receptor (CXCR) 4 (UniProt P61073)
Assay: cell-based or functional assay

Sequence of chemokine (C-X-C) motif receptor (CXCR) 4 (P61073 whole entry): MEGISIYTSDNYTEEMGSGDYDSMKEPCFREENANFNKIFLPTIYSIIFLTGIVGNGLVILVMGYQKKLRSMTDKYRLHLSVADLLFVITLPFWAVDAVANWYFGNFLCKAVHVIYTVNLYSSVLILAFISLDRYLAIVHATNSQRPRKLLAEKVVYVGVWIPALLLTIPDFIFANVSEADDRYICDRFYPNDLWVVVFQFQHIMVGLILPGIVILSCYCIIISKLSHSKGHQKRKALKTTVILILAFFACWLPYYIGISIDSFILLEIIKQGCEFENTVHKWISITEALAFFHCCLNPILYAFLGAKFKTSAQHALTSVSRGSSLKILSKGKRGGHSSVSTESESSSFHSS

Row | Substance | EC50, inhibition of thrombin-mediated hyper-permeability of hPPAEC (t=255 min) [pM] | concentration at which thrombin-mediated hPPAEC barrier impairment was affected (t=255 min) [nM]
1 | CXCL12 K27A/R41A/R47A (from UniProt P48061 22-89) (ligand) | 50 to 500 | 
2 | CXCL12 R47E (from UniProt P48061 22-89) (ligand) | 500 to 50000 | 
3 | CXCL12β (from UniProt P48061 22-93) (ligand) | 50 to 500 | 
4 | Locked dimer CXCL122 (constitutively dimeric CXCL12 variant, L36C/A65C) (from UniProt O62657 22-89) (ligand) |  | 50

From patent publication US20190374607A1
